Experiment: soluble on expression in E. coli; label from the status in PepcDB or PDB records
With “MGSDKIHHHHHHMYVAVKGGEKAIEAAHQLQSCRRRGCTDIPELDCSQIEQQLNLAVDRVMTEGNIYDRQLAALAIKQASGDLVESIFLLRAYRSTLPRWGISQPLNTPDMRLERRVSAIFKDLPGGQLLGPTYDYTHRLLDFSLLADGEDPVAPQPDAVYEDEGTREHIPHAFQFLAQQHLVPERNISDDSNPSDITMEPPSYPGTRAARLQQLFRGDEGFLLSLGYSTQRGYGRNHPFVSEIRTGYITVSIVAEEVGFAIDIGEILLTECETVNGFVKPANDAPHFTRGYGLAFGRSERKAITVALADRALQAADYQEEVRGPAQDEEFVLSHADNVEAAGFVSHLKLPHYVDFQSELELLKRLREEYLASVPRSKA” the “soluble on expression in E. coli” value was “not soluble”. With “LKFGTSWKEAYGTGWLIDWKDVKQDNKFTAYLATNLHVADSLRNKDDYKPYNKDGNQKEFLPGDITTEFSLGKYIDA” the “soluble on expression in E. coli” value was “not soluble”. With “MAHHHHHHMPSLNNNTIREDVIFKRRVKDVLLRHGGTGGLVKVLIDFNAREAVAARQQRQTTSTDSGSSRTDVGLSHAQLLLFLQDYGVELTPFEAAYLCRAFDDHGSGFISGETFTRHLTGLNERRLRAVKKAWQSLERRNGASGKVSRELLLSTFAAVAAERAHAAAGDPGNPADGAAHDAIATTSFSSPVGGALQSTFGGGHGMHEHLKEAYMTSMMGRGSGFMAKPNAAAGGADGESGEAADRVSYAEYLAFYAGVSPQFATDEAFVTHVLQSWAADDAARPALDETAREWGPDGDPLALDGPRYVKEALNLELGISSKSYNYSHMQREHPYVEPLPPLNRPDIMATTMQRTYVPFDKAAQMLADPLVTRRGQSK” the “soluble on expression in E. coli” value was “not soluble”. For “MGSDKIHHHHHHMRITSIFLFTIIIFGGLSCSNDDSLIHNKTKGILEKYPEPTVTITAHNHIPFLAKNILEEKAITKSVNIISDIAWANGFGRTITARSDEMVIPDNMNRYIYPGSILEASSIAETRFTPIPVKNNPVHVSVSFPAKKVGGTIKEPSLLNIRQFVMDLMQQNNIGKQSATLSFDVQKFVSYDELKMTFGSNENTGLLFWGTSSAQYQNKYRIIRSSGLCIKFIQKYFTLDMDIPSNGLISGTIPGGYSPVYVSSIAYGRIGILTLETNYDYEKANKLVKETFNSLFINKNNTLTKEQEAFFNSAEMKVFIAGGSGVTGVKTIGGIKEFTNYITEGGEFSASSPGKPIFCSFANYSDDSPYRINFKIDIDSDPVYARLEYDITKDVSGGNVKSWYTDANVYLRFYADKACSIKTIAQNYIGFNINRLILQQYVGPNYSVSKAREVKLDQNLTFHNQTKGIEYPIAYGHRMTETIGTTYLDRGNWTNDHFYLRAGKFYQVRPPINMKYTCFIDYHNQNEYDCSDFE”, the “soluble on expression in E. coli” value was “not soluble”. For “MAPMFGVSFDFDPDFSLLSNKTHKSRNPKPPVKLLPYRHGSNTTSSDSDSYTSDLDLPTMRLHHQWLRSPSRSKMCCSTGSSSISQSIHRA”, the “soluble on expression in E. coli” value was “not soluble”. With “MSTTTAITSTLQRVTKAPEGRRMLRVEARNSQTPIESKPRWIRTAVKTGPEYQDMKKKVSGASLHTVCQEAGCPNIHECWESREATFLIGGANCSRRCDFCQINSAKPEPLDRDEPRRVAESVREMQLNYSTITGVTRDDLEDEGAWLYAEVVRKIHELNPHTGVENLTPDFSGKPDLLQEVFEARPEVFAHNLETVPRIFKRIRPAFRYERSLDVIRQARDFGLVTKSNLILGMGETVDEIRDALVDLHSAGCDIITITQYLRPGPMYHPIDRWVKPEEFIDHADFARELGFGAVMSGPLVRSSYRAGKLYAEALAARGESLPENLAHLATTADGSTAQEANTLLEKYGPSQDTPVVSSKA” the “soluble on expression in E. coli” value was “not soluble”. For “MSLTNKKNLRVVALAPTGRYFASIISSLEILETAAEFAEFQGFMTHVVTPNNRPLIGRGGISVQPTAQWQSFDFTNILIIGSIGDPLESLDNIDPALFDWIRELHLKGSKIVAIDTGIFVVAKAGLLQQNKAVMHSYFAHLFGELFPEIMLMTEQKALIDGNVYLSSGPYSHSSVMLEIVEEYFGKHTRNLGNQFLSTIESSGNSHSYCDVFRYMQHRDELILKIQKWILTTDLDIVSISDLANEACLSERQLKRRFKEATSISPLKFIQLGRLSFAKELLRSTKLSIDEVASRSGYVDTQFFRQIFKRENDCSPLEYRKRNQVKAEGHHHHHH”, the “soluble on expression in E. coli” value was “soluble”. With “MLAQQRLDFEFRPMTAADVGNAHELSIALKWPHRLEDWAMLQRVAQGFVAVRNGRLIGSAFACHQGEFSTIGLVIVSDDYQGKGIGRKLMELAVGSIPPRTAILNATLAGAPLYEKMGFVSFGEIQQRQGQAQLPDATLLTAEESCRVLSEADHDRVLELGNAGSGLDRSVTLGDLLNNLEHAVGIDRDGQLQAFALLRPFGRGLCIGPVVAQTVEQARHMIEHLLARVPYAFVRIDIPTHCGLADWLEAAGLKRVDSVTCMSMGAVPQAREGVSQFALITQAIG” the “soluble on expression in E. coli” value was “not soluble”. For “MPLSPLDIHNKEFTRGFRGYDEDEVNDFLDQIIKDYEQVIKEKKRIEDTLNNSEERLGHFTNIEETLNKSLIVAQTAAEEVKASAEKEAKLIIREAEKNADRILSDSLSKARKIAIEIEDLKRQSKVFRERLRMLVEAQMDLIKSEDWQQMMAYDVDATELASIKEVESAESEER”, the “soluble on expression in E. coli” value was “not soluble”. For “SGQTALAGGSSSTPTPQALYPDLSCPEGLEELLSAPPPDLGAQRRHGWNPKDCSENIEVKEGGLYFERRPVAQSTDGARGKRGYSRGLHAWEISWPLEQRGTHAVVGVATALAPLQTDHYAALLGSNSESWGWDIGRGKLYHQSKGPGAPQYPAGTQGEQLEVPERLLVVLDMEEGTLGYAIGGTYLGPAFRGLKGRTLYPAVSAVWGQCQVRIRYLGERRAEPHSLLHLSRLCVRHNLGDTRLGQVSALPLPPAMKRYLLYQ”, the “soluble on expression in E. coli” value was “not soluble”. With “MAHHHHHHMSENLDRYDAYRLFCISAAAVNGDEDELQDRLGIVEEYLTEYEGLCRAFHKAQRTTHAQEIRRLLADEAEERRFLKEDADSLPWKLFINMSFACAQELVVEHERKMRQGIVAAYTASFTELLFPYETLQRMRLTWEALDSLALKACIVGRYGVREGQLARTSIPGYTAGSTFPPSARAAAAADAVRSLLAEEHQERQEMIEARGQHVAAALLILASSEKFRSFASASVCGMGFLPQLRNNLASTARQALDNSATRIQSAYRGYRVRAVRARS” the “soluble on expression in E. coli” value was “not soluble”. In the case of “MAGDPMVMLNTHVVECLQACGRCAAACDYCASSCLREGHGADMARCIALDLDCAAACRLCAAMMARESEFSTHMCTLCARICEVCGDECARHEPRHCQECATACHACASACRAMARPLEHHHHHH”, the “soluble on expression in E. coli” value is reported as “soluble”. With “MGSDKIHHHHHHMKEIVEQNIFNEDLSQLLYSFIDSKETFSFAESSILHYVVFGGENLDVATRLGAGIEILILSSDIMDDLEDEDNHHALWMKINRSESLNAALSLYTVGLTSIYSLNNNPLIFKYVLKYVNEAMQGQHDDITNKSKTEDESLEVIRLKCGSLIALANVAGVLLATGEYNETVERYSYYKGIIAQISGDYYVLLSGNRSDIEKNKHTLIYLYLKRLFNDASEDLLYLISHKDLYYKSLLDKEKFQEKLIKAGVTQYISVLLEIYKQKCISAIEQLNLDKEKKELIKECLLSYTKGDTRCKT” the “soluble on expression in E. coli” value was “not soluble”. In the case of “MSELRVISLDEVSKHNWEDADQSCWIVISGKVYDVTKFLNEHPGGEEVITQLAGKDATVGFLDVGHSKDAIEMANEYLIGQLPESDVPKVETAAAKPSKNEKSSSLLNDFTEIMTSPTWTNFLIPTTMGLVIYAVYKCMFN”, the “soluble on expression in E. coli” value is reported as “not soluble”. For “MTKNDNTIFKDIYQLWFTQYKQTVKESTWVTTQRLFRLHILPIFSDYRIAKISIKDCQKAINQWFNAGLAKYHTLMNYVAKVLDYAINIDLISENPAKRVIVPVNKNDRSLEHHHHHH”, the “soluble on expression in E. coli” value was “soluble”. In the case of “MKNDEVLLSIKNLKQYFNAGKKNEVRAIENISFDIYKGETLGLVGESGCGKSTTGKSIIKLNDITSGEILYEGIDIQKIRKRKDLLKFNKKIQMIFQDPYASLNPRLKVMDIVAEGIDIHHLATDKRDRKKRVYDLLETVGLSKEHANRYPHEFSGGQRQRIGIARVLAVEPEFIIADEPISALDVSIQAQVVNLLLKLQRERGITFLFIAHDLSMVKYISDRIAVMHFGKIVEIGPAEEIYQNPLHDYTKSLLSAIPQPDPESERSRKRFSYIDDEANNHLRQLHEIRPNHFVFSTEEEAAQLRENKLVTQN”, the “soluble on expression in E. coli” value is reported as “not soluble”. In the case of “MGSDKIHHHHHHMIIEELHIVNFKSIAAADCRFSPKVNCLVGNNGMGKTNLLDALHFLSFCRSHLSVPDNMVVRHGEEMALLQGLYRDESGDGIELLLSIRPGKHKVLRRNKKEYERLSDHIGRFPLVIVSPQDYQLILGGSDERRRFMDQQLCQQDPRYLSALIQYNRHLQQRNTMLKQDRHDDALMDVLELQMGSYAAEICNKRSRFIEDFLPVFNDLYSDISGSAEKVSLSYRSHLADGIPLEELLRRSRPKDYLLGFSSCGVHKDELEMLLGGVLIRKIGSEGQNKTFLISMKLAQFRHQQLHGDETPILLLDDIFDKLDATRVERIIRLVGGNGFGQIFITDTNRKNLDEIIASWSEDYRLFKIENGQIFQ”, the “soluble on expression in E. coli” value is reported as “not soluble”. With “MGSDKIHHHHHHMKLICEKELCTGCGLCAARCPKHSISLVAEELGHLYPSVDQKKCIDCGLCQKACPSLHDTVCLYPSVAYAAWSKDEEDYRSSTSGGMASVLTHYFLANVGIVYGCTVIPGIEIKHIRIDNLKDAYKLKGSKYVQSSIVDVLSQIRQDVKDGTNVLFIGTPCQVTAVKRMYEEQPDNLFLVDLICHGVPSNKWLVDYIANTLKIKADKVSSIGFRLFEAFSLCVYNDDRLIYKSGDLWTHRYEDLYYNTFIDGFTYRDSCFNCHYAKPERVSDITIGDFWGLGNETDDNYIPKHPYGISCVLPLTEKGKRLISIVKDKLNIYERPVTEAINGNDQLRFPKKKNLRIKFFRRIHKYIGVDAAYKLCVCDKIVKYKIRKIIR” the “soluble on expression in E. coli” value was “not soluble”. In the case of “MGAGSQTTGAGQKKVQTITVGTGTQFPNICFIDEKGDLTGYDVELIKELDKRLPHYKFTFKTMEFSNLLVSLGQHKVDIVAHQMEKSKEREKKFLFNKVAYNHFPLKITVLQNNDTIRGIEDLKGKRVITSATSNGALVLKKWNEDNGRPFEIAYEGQGANETANQLKSGRADATISTPFAVDFQNKTSTIKEKTVGNVLSNAKVYFMFNKNEQTLSDDIDKALQEIIDDGTLKRLSLKWLGDDYSKEQYLEHHHHHH”, the “soluble on expression in E. coli” value is reported as “soluble”. In the case of “MKGPYKHFMQKEIFEQPDSAFNTMRGRIDFENCVVTLGGLKSWLSTIRRCRRIIMIACGTSYHSCLATRSIFEELTEIPVSVELASDFLDRRSPVFRDDTCVFVSQSGETADSILALQYCLERGALTVGIVNSVGSSMSRQTHCGVHINAGPEIGVASTKAYTSQYIALVMFALSLSNDSISRKGRHEEIIKGLQKIPEQIKQVLKLENKIKDLCNSSLNDQKSLLLLGRGYQFATALEGALKIKEISYMHSEGVLAGELKHGILALVDEDLPIIAFATRDSLFPKVMSAIEQVTARDGRPIVICNEGDAIISNDKVHTTLEVPETVDCLQGLLNVIPLQLISYWLAVNRGIDVDFPRNLAKSVTVE”, the “soluble on expression in E. coli” value is reported as “soluble”. For “MGSDKIHHHHHHISYPLPPEGSRLVGSAFTIAVPDNNTQPLESFAAQYGQGLSNMLEANPGVDVYLPRSGSTLTIPQQLILPDTVREGIVINVAEMRLYYYPPLGNSVEVLPIGIGQAGRETPRNWVTAVERKQEGPTWVPTANTRREYAKEGKTLPAMVPPGPDNPMGLYAIYIGRLYAIHGTNANFGIGLRVSQGCIRLRNDDIKFLFDNVPVGTRVQLIDQPVKYSVEPDGSHWLEVHEPLSRNRAEFESDRKVPLPMTSALRDFTQGPGVSPAQVEQTLQRRSGMPVNISATAAQGSL”, the “soluble on expression in E. coli” value was “not soluble”. In the case of “MPAINAKRVYRIMRQNALLLERKPAVPPSKRAHTGRVAVKESNQRWCSDGFEFCCDNGERLRVTFALDCCDREALHWAVTTGGFNSETVQDVMLGAVERRFGNDLPSSPVEWLTDNGSCYRANETRQFARMLGLEPKNTAVRSPESNGIAESFVKTIKRDYISIMPKPDGLTAAKNLAEAFEHYNEWHPHSALGYRSPREYLRQRACNGLSDNRCLEILEHHHHHH”, the “soluble on expression in E. coli” value is reported as “soluble”.

Reference: the DeepSol protein solubility set
